According to patent US6475806:

Molecular target: antibody to hCG
Experiment: competition: unlabelled hCG displacing hCG-I^125 from the antibody to hCG

hCG (from UniProt P01215 25-116; P0DN86 21-165) (ligand)
IC50: 10 nM
